Source: the supplement of paper PMC9170038

Test system: MS2 coat protein
Assay: apparent KD of MS2 coat protein; designed switch direction (-1 OFF switch, 1 ON switch): 1; higher = weaker reporter binding
Summary of the method: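 RNA switches sharing common flanks were transcribed by stalled E. coli RNA polymerase on Illumina chips. A doubling series of SNAP-549-labelled MS2 coat protein, from 0.7 or 1.5 nM to 3 µM, was applied in Tris-HCl pH 7.5 buffer with KCl, MgCl2, BSA, DTT, tRNA and Tween-20. Each step lasted 0.8–1.5 h at the bottom of the series and 10–20 min at the top. Normalised cluster fluorescence was curve-fitted, giving apparent KD as the per-design median over clusters.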

[1] = Eterna round: R95, input ligand: FMN 200 uM
[2] = Eterna round: R95, input ligand: microRNA oligo, concentration not stated
[3] = Eterna round: R95, input ligand: none
[4] = input ligand: microRNA oligo, concentration not stated

Sequence	apparent KD of MS2 coat protein [1] [nM]	apparent KD of MS2 coat protein [2] [nM]	apparent KD of MS2 coat protein [3] [nM]	apparent KD of MS2 coat protein (input ligand: FMN 200 uM) [nM]	apparent KD of MS2 coat protein [4] [nM]	apparent KD of MS2 coat protein (input ligand: none) [nM]
AAUUAUUCACAUGAGGAUCACCCAUGUGAUAUUAUUAUUACAAGCUUUUUGCUCGUCUUGUUCCUCAGUGAAUAAUU [Default title] (puzzle: Sensor for hsa-mir-208a version 2)	18.3	74.5	15.9			
GUAGCAUGCAGCGAGGAUAUUCAUAUUAAAACAUGAGGAUCACCCAUGUAGGCCAAAAGGCCUUGGGAGAAGGCGCACAUGCUAC [Xeonanis - 20] (puzzle: Same State 2)	31.2	527	717			
UGGUACAUGGGAGGAUAUCAUGUAGAAACAUGAGGAUCACCCAUGUAGAUGGCACGAUUCGUGAAUGAGAAGGCCCAUGUACCU [JL SSNG1 3.60] (Eterna round: R96, puzzle: Same State NG 2)				36.8	38.2	52.8
CAGCACUAUCGAGAGGAUAUGCGGUGAUGGACAUGAGGAUCACCCAUGUUAGCGGUAGCAUCACGGCAGAAGGCUCUGCUGCUGC [Soteed Omei mod 39] (Eterna round: R96, puzzle: Same State 2)				19	21.5	28.5
AAAGACAUGAGGAUCACCCAUGUACAGACAAACCAGUCUGCACAGGAUAUCCCGAGGAUAACUCGGGAGAAGGGUGGCCAAAAC [Onveenes] (Eterna round: R96, puzzle: Same State NG 3)				74.8	18.9	33.5
UUAUAACAUGAGGAUCACCCAUGUCAACAAAGUCGAGGAUAUGGGCAAGAAGUGAGAGAACCAGAAGGCGAAUAUU [Mat - Same State 1 - Mod of UCT - D30] (puzzle: Same State 1)	72	88.7	97.4			
GCUAGAAUAAACGCCUACAUGAGGAUCACCCAUGUAUGUAGGCAGGAUAUCGUUUGCAAAGCAAACGAGAAGGGCCUUACUAGC [Mat - Same State NG 3 - JL Mod - D32] (Eterna round: R96, puzzle: Same State NG 3)				20.2	22.2	37.1
GUUACAUGAGGAUCACCCAUGUAUGUGUGGGAGUAAGUGUCUUAGGAUAUCUAGUAUUUAAAUUAAGAGAAGGAAGAUUGUUGU [JMF's solution 9] (Eterna round: R96, puzzle: Same State NG 3)				117	84.8	113
GGAGCCGGUACUGAGGAUAUUCAUCUUAAAACAUGAGGAUCACCCAUGUAGGCCAGAAGGCCUUGGGAGAAGGCAGAUCGGCUCC [Biseusra - 7] (puzzle: Same State 2)	20	52.2	66			
GAUCGUUUGAUAGGAUAUCGCUAUACAUGAGGAUCACCCAUGUUUACCACGCUGGUUUUUCAUACCGAGAAGGAUUCUGAUGAC [salish99_SSNG02_r04_007] (Eterna round: R96, puzzle: Same State NG 2)				21.5	15.5	26.6
GGCUAUCGCGUACGAUAGCUGAAGCGUGUACAUGAGGAUCACCCAUGUCAUGUACAAGCUUUUUGCUCGUCUUAUUG [JL-shm-2.33 JL mod] (puzzle: Sensor for hsa-mir-208a)	155	18.2	328			
UUAAUGAUGUAAGGAUAUACAUGAGGAAUUCUCGUAGAAGGUACAUGACAUGAGGAUCACCCAUGUAUCGCUCCGUAGAGCGUA [JL SSNG1 1.12] (Eterna round: R96, puzzle: Same State NG 1)				190	119	79.7
AGAUGUUAAUUAGGAUAUGGACACAUGAGGAUCACCCAUGUAACGAAGAUACGAUGUGGUCAAGUCUAGAAGGGAUCGCUAACA [SameState NG2 #74] (Eterna round: R96, puzzle: Same State NG 2)				38.1	26.9	36.6
GUGGUCAGACAUGAGGAUCACCCAUGUGGAAUAAAUAACAACUAGGAUAUAUAAUAUAGGAUAUAAUAGAAGGAGUGAUUGGUG (Eterna round: R96, puzzle: Same State NG 3)					121	
UUACUCAUGUAAGGAUAUGCAGCCGUUUCGGCUGCAGAAGGUACUAUAAUACAUGAGGAUCACCCAUGUCUCUAUUAUUUGGUG [salish99_SSNG1_r04_923] (Eterna round: R96, puzzle: Same State NG 1)				111	51.1	84.4
GCUAGAAUUAAAGCCAACAUGAGGAUCACCCAUGUAUGUUGGUAGGAUAUCGUUUGCAAAGCAAACGAGAAGGGCCAAACUAGC [Mat - Same State NG 3 - JL Mod - D19] (Eterna round: R96, puzzle: Same State NG 3)				86.6	104	99.7

Sequence	apparent KD of MS2 coat protein [1] [nM]	apparent KD of MS2 coat protein [2] [nM]	apparent KD of MS2 coat protein [3] [nM]	apparent KD of MS2 coat protein (input ligand: FMN 200 uM) [nM]	apparent KD of MS2 coat protein [4] [nM]	apparent KD of MS2 coat protein (input ligand: none) [nM]
GUUACAUGAGGAUCACCCAUGUAUGUGUGGGAGUAAGUGUCUUAGGAUAUCUAUUAUUUAAUUUAAGAGAAGGAAGAUUGUUGU [JMF's solution 22] (Eterna round: R96, puzzle: Same State NG 3)					82.3	
GGUAUUGACACAGGAUAUGCUUACGAAACGUAAGCAGAAGGGUGAACAUGAGGAUCACCCAUGUAUGUACCAGGGCGUGAGCCC [JL SSNG1 1.74] (Eterna round: R96, puzzle: Same State NG 1)				169	875	1880
GGAGACAGAGCAGGAUAUGCUCCGAGUAACGAAGCAGAAGGGUUCGUAAAUCGUCGACAUGAGGAUCACCCAUGUGACCUAGUA [Eternabot solution 18] (Eterna round: R96, puzzle: Same State NG 1)				20.7	18.4	24.7
GGAAACAAGAGAGGAUAUGCAGAGGAUCACCCUGCAGAAGGCUCAAAAGAGAGGAUAUGCAGAGGAUCACCCUGCAGAAGGCUC [pwkr ssNG DX.27] (Eterna round: R96, puzzle: Same State NG 1)				17.8	11.2	21.4
GAGUAGUUAAAAGGAUAUUGAUUAUUGUAGGAUCAAGAAGGUUUUAACAUGAGGAUCACCCAUGUAGGACUAUUCCUGUGUAUC [Parity 90 - Jieux - Same State NG 1] (Eterna round: R96, puzzle: Same State NG 1)					12	
GGUCCAGCCUGAGCUGGACAAAAGCAUGUACAUGAGGAUCACCCAUGUUCAUGUACAAGCUUUUUGCUCGUCUUAAG [salish99_208a_r3_037] (puzzle: Sensor for hsa-mir-208a)	719	18	740			
CUACGAGCGCCACAGGAUAUACUGAGACUCACAUGAGGAUCACCCAUGUCCAAUUCUCCCAAAUAGUAGAAGGGUGACGCGCUCG [Maenve] (Eterna round: R96, puzzle: Same State 2)				35.5	426	562
AGAAAACAUGAGGAUCACCCAUGUAGAAAUAUGGGAGGAUAUACAAAGACGAAAGUCGAGGUAGAAGGCCUAAAGA [Mat - Same State 1 - Meechl mod - D122] (Eterna round: R96, puzzle: Same State 1)					77.9	
ACCCGCAGCCGUCAGGAUAUGUUCGCGUCAACAUGAGGAUCACCCAUGUGUGACAAGAAGUACACGCAGAAGGGAUCAAUGCGGG [Bienri] (Eterna round: R96, puzzle: Same State 2)				13.4	11.7	17.8
UCAACUUCUUUUAGUGUGUUGCCAGUUUUACAUGAGGAUCACCCAUGUUAAGUAUUGUGGUAUUUUGUUCGUCUUAA [JR_SHM208A_Sub073] (puzzle: Sensor for hsa-mir-208a)	15.6	14.3	16.3			
AAAAGACAUGAGGAUCACCCAUGUAUGAAAAGUACAGGAUAUCACGAGCUAAGAAGCGAGUGAGAAGGGUGAAAAU [Sogedi] (puzzle: Same State 1)	519	69.1	109			
AGCGAGAUAGGCAAGGAUAUGCUGGGUUUCACAUGAGGAUCACCCAUGUCAUUGGUUAUGUCCGAGCAGAAGGUGCAUUCUCUUU [ak bound state multiloop solution 2] (puzzle: Same State 2)		250				
UGCCUGAGUCGAGGAUAUUAUGGAUCAAUUAAUACAUGAGGAUCACCCAUGUAAUUAAUUUAACAUGAGAAGGCGACUCAGGCA [SSNG2/10-A2] (Eterna round: R96, puzzle: Same State NG 2)				7.88	4.69	8.81
AUAAGAAACACAGGAUAUACCGCACUUAACACGGUAGAAGGGUGGGACAUGAGGAUCACCCAUGUGGUCCGGGCGCCGGACCGC [Geenusrior] (Eterna round: R96, puzzle: Same State NG 1)				711	27.8	329
GGCAGGUGCAGGCUUGCUUGCACCUGGAAACAUGAGGAUCACCCAUGUUUGGGACAAGCUUUGCUCCUCGUCUUGUC [JL ViennaUCT Isusreraar mod 2] (puzzle: Sensor for hsa-mir-208a)	28.2	36.5	36.7			
